Molecular target: recombinant RhoA (UniProt P61586)
Sequence (P61586 whole entry): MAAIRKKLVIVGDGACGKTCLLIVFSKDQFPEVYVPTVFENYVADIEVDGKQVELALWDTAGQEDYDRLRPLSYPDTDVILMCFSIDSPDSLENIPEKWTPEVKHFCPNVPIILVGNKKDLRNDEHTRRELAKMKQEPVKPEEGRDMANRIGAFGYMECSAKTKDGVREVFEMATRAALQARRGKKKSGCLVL

## T7-tagged TRIO(G2699V)
  RhoGEF activity (mant-GTP exchange assay): the TRIO(G2699V) mutant was more capable of activating Rho than TRIO(WT)
